Reference: article PMC9818267, “Brain Natriuretic Peptide Protects Cardiomyocytes from Apoptosis and Stimulates Their Cell Cycle Re-Entry in Mouse Infarcted Hearts” (Cells, 2022)

Columns and labels:
[1] = biological target: NPR-A or NPR-B (mouse (endogenous in cardiomyocytes))
[2] = biological target: NPR-A or NPR-B (mouse (endogenous in cardiomyocytes)); remark: listed apart in the source

In the case of “Brain Natriuretic Peptide, synthetic mouse BNP (1–45) peptide”, the pPLB/PLB ratio (Western blot) in CMs isolated from the RZ of infarcted hearts after BNP injections, against saline (decreased) [1] is reported as -32%, the pPLB/PLB ratio (Western blot) in CMs isolated from the border zone (BZ) of infarcted hearts after BNP injections, against saline [1] is reported as 2.7 fold and the pPLB/PLB ratio (Western blot) in CMs isolated from unmanipulated adult hearts after BNP injections, against saline [1] is reported as 1.5 fold. It also gave a pPLB/PLB ratio (Western blot) in CMs isolated from unmanipulated neonatal hearts after BNP injections, against saline [1] of 3.5 fold and a pPLB/PLB ratio (Western blot) in adult CMs isolated from C57BL/6 hearts and stimulated in vitro with BNP for 2–3 h, against untreated cells [2] of 2.1 fold.
